Molecular target: stand-alone thioesterase (TE) domain of the 6-deoxyerythronolide B synthase (DEBS)
Assay: SEC

For “stand-alone thioesterase (TE) domain of the 6-deoxyerythronolide B synthase (DEBS) (domain or fragment)”, the stoichiometry N was 2.

Source: PMC6424575
